Assay results: publication PMC5871871 (Autophagy, 2013)
Read-outs that look alike come from different tables or passages of the source.

B1: Atg17 (recombinant, His-MBP tag removed by TEV), in the untagged Atg17-Atg31-Atg29 complex (natural protein, S. cerevisiae, UniProt Q06410 1-417, looked up)
chain: MNEADVTKFVNNARKTLTDAQLLCSSANLRIVDIKKKLSSWQLSISKLNFLIVGLRQQGKFLYTILKEGIGTKLIQKQWNQAVLVVLVDEMKYWQYEITSKVQRLDGIVNELSISEKDDTDPSKLGDYISRDNVNLLNDKLKEVPVIERQIENIKLQYENMVRKVNKELIDTKLTDVTQKFQSKFGIDNLMETNVAEQFSRELTDLEKDLAEIMNSLTQHFDKTLLLQDKKIDNDEREELFKVVQGDDKELYNIFKTLHEVIDDVDKTILNLGQFLQAKIKEKTELHSEVSEIINDFNRNLEYLLIFKDISNLIDSFKNSCTQDIQTTKELCEFYDNFEESYGNLVLEAKRRKDVANRMKTILKDCEKQLQNLDAQDQEERQNFIAENGTYLPETIWPGKIDDFSSLYTLNYNVKNP
B2: His-MBP-tagged Atg17 (natural protein, S. cerevisiae, UniProt Q06410 1-417, looked up)
chain: B1 chain

Key:
[1] = biological target: the molecule itself; experiment: negative-stain single-particle EM
[2] = biological target: the molecule itself; experiment: negative-stain single-particle EM; remark: listed apart in the source

Protein | stoichiometry N [1] | stoichiometry N [2]
B1 | 2 | –
B2 | – | 2
